Source: article PMC11459465

Legend:
[1] = biological target: BG505 IDL trimer (HIV-1 strain BG505 (clade A)); experiment: cryo-EM structure
[2] = biological target: BG505 IDL trimer (HIV-1 strain BG505 (clade A)); experiment: negative-staining electron microscopy
[3] = biological target: WITO IDL trimer (HIV-1 strain WITO (clade B)); experiment: cryo-EM structure
[4] = biological target: JR-FL IDL trimer (HIV-1 strain JR-FL (clade B)); experiment: cryo-EM structure

**Q.** What does the source list for BG505 IDL trimer (complex)?
**A.** stoichiometry N [1]: 3; stoichiometry N [2]: 3

**Q.** WITO IDL trimer (complex) was tested. Which stoichiometry N [3] did it give?
**A.** Its stoichiometry N is 3.

**Q.** How did the stoichiometry N [4] turn out when JR-FL IDL trimer (complex) was run?
**A.** Its stoichiometry N is 3.
